Results published in publication PMC6891902, “GLTSCR1 Negatively Regulates BRD4‐Dependent Transcription Elongation and Inhibits CRC Metastasis” (Advanced Science, 2019).

Molecular target: T1, His-tagged BRD4 (1-470, BDs domain) (UniProt O60885 1-470)
T1 construct: BRD4, BDs domain (BD1 + BD2), aa 1-470; also called His-BRD4 (BD1 + BD2); pET-28a-His-BRD4 (1-470)
Assay: pull-down; GST pull-down; purified GST-GLTSCR1 (1161-1361) incubated with purified His-tagged BRD4 fragment at 4 °C overnight; beads washed three times in lysis buffer (0.5% Triton-X100, 50 mM NaH2PO4, 300 mM NaCl); immunoblot
Conditions: both partners purified

binding result: binds
B1: GST-GLTSCR1 (aa 1161-1361), BRD4 binding domain (BB domain) (domain or fragment, human, UniProt Q9NZM4 1161-1361, looked up)
chain: EESRRVSPSAEMVMIDRMFIQEEKTTLALDKQLAKEKPDEYVSSSRSLGLPIAASSEGHRLPGHGPLSSSAPGASTQPPPHLPTKLVIRHGGAGGSPSVTWARASSSLSSSSSSSSAASSLDADEDGPMPSRNRPPIKTYEARSRIGLKLKIKQEAGLSKVVHNTALDPVHQPPPPPATLKVAEPPPRPPPPPPPTGQMNG
notes: also called GST-tagged GLTSCR1 BB domain; source: E. coli BL21, purified (glutathione agarose beads)
